Data taken from PMC10984559.

Molecular target: T1, Mtr4 ΔSLYL (Saccharomyces cerevisiae, UniProt P47047 1-1069, del1070-1073)
T1 sequence: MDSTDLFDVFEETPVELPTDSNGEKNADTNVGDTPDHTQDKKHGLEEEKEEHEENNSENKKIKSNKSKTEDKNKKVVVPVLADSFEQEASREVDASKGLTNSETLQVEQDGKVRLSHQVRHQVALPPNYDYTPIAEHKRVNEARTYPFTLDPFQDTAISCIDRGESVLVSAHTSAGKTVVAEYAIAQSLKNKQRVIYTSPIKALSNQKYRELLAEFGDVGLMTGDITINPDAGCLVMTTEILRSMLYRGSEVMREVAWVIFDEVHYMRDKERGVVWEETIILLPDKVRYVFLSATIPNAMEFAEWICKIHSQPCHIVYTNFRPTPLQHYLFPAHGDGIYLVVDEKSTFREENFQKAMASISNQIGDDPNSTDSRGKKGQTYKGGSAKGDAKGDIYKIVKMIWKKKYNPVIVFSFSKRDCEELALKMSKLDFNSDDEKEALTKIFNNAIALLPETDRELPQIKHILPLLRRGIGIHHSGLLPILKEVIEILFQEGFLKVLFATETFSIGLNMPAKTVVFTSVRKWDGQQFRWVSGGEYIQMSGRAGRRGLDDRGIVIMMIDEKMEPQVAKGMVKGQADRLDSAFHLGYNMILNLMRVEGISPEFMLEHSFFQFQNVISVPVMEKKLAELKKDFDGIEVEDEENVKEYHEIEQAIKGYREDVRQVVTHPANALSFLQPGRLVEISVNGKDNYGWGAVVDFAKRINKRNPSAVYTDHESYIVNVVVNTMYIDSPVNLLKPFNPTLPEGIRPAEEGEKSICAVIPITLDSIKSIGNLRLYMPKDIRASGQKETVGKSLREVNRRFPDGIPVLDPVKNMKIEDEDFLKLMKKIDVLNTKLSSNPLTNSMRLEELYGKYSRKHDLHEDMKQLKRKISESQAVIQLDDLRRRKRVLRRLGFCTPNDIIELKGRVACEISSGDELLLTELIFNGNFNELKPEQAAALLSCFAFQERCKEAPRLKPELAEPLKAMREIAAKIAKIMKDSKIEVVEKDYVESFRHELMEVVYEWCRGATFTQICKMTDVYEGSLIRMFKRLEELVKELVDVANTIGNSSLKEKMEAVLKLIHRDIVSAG
Assay: EMSA

B1: ds16UA5 (R16/R22A) (dsRNA)
RNA 1: AGCACCGUAAAGACGC
RNA 2: GCGUCUUUACGGUGCUUAAAAA
**Q.** How did the binding signal turn out when B1 was run?
**A.** Its binding signal is > 5 fold Kd vs WT.
